Data on seven substances can be found in article PMC5271678.

One may read the pKd as −log10 of the Kd, conventionally taken in molar units.

pKd: −log10 of the molar value.

This series concerns GST-CELF1 (recombinant human CELF1) (Homo sapiens). Description: EMSA. Particulars: 3 fmol RNA with increasing GST-hCELF1, 5% native polyacrylamide gel; buffer, salt, pH and temperature not given (cited ref 31).
Turning to 7SL RNA fragment (negative control), the pKd is < 6.52.

For the substance Srp9 3'UTR fragment, the negative-log Kd (pKd) was 9.08.

For Srp14 3'UTR fragment, the pKd is 7.91.

Srp19 3'UTR fragment: the pKd is 7.47.

As for Srp54 3'UTR fragment, the pKd is 7.87.

For the substance Srp68 3'UTR fragment, the negative logarithm of the Kd (pKd) is 8.79.

Turning to Srp72 3'UTR fragment, the pKd was 9.28.
